Results: the DeepSol protein solubility set

assay: soluble on expression in E. coli; label from the status in PepcDB or PDB records

Row | Sequence | soluble on expression in E. coli
1 | MGSDKIHHHHHHMSNKPFFYQDPFPLKKDDTEYYLLTSEHVSVAEFEGQEILKVAPEALTLLARQAFHDASFMLRPAHQQQVADILRDPQASENDKYVALQFLRNSDIAAKGVLPTCQDTGTAIIVGKKGQRVWTGGGDEAALARGVYNTYIEDNLRYSQNAALDMYKEVNTGTNLPAQIDLYSVDGDEYKFLCIAKGGGSANKTYLYQETKALLTPGKLKNYLVDKMRTLGTAACPPYHIAFVIGGTSAEANLKTVKLASAKYYDALPTEGNEHGQAFRDIELEKELLLEAQNLGLGAQFGGKYFAHDIRVIRLPRHGASCPVGMGVSCSADRNIKAKINRDGIWIEKLERNPGKYIPEALRQAGEGEAVRVDLNRPMSEILQQLSQYPVSTRLSLNGTIIVGRDIAHAKLKERMDRGEGLPQYIKDHPIYYAGPAKTPEGYASGSLGPTTAGRMDSYVDQLQSQGGSMIMLAKGNRSQQVTDACKKHGGFYLGSIGGPAAVLAQGSIKRLECVEYPELGMEAIWKIEVEDFPAFILVDDKGNDFFQQIQSSQCGAALSNVAALRGGNMIRYFAGERRKRLIRSTPLCCYR | not soluble
2 | MGSDKIHHHHHHMSNLKHTRHNSHNVRHHSTGNSMNYVSTGQGEAILLIHGLFGNLDNLKGLGQALEAHHQVIRVDVPNHGLSEHRQQMDYPSLAKAMVDLLDELELERVHIVGHSMGGKIAMATALAYPNRIISLVAADIAPVAYQPRHNAVFAALESLPLEGHTDRRFALAHLLAAGIDDATAQFLLKNLQRSGTGFRWKMNLTGLKSGYPNIIGWHNLPNEPQLVFAGPSLFIRGGDSNYVAAAHRDEILRQFPQAQAKTLEGCGHWLHAQKPTIFNRIVSEFIDKHTV | not soluble
3 | MGSDKIHHHHHHMSPDVDIKALRCFLALAQELSFGRAAERMNLTQPSLSAQIRKLEDQVGHRLFERTTRAVHLSPTGKALIEQARTFVSQADAFAAHLSAWRERPDRRMVLGAPIYTFELPEHGALLSAIARELPDMSLRVDNGFANSLVEGLIKGSVDMAMVVAAAVPHDRYLADMAGEGAGELEMPDGLQRITLSDEQIGLAIPEEHPLASYDIVPPEALSGSVIAMLAPLHGRSLYRPISVWLSAAGATGFLPPEAHAFALERYCREYRIPAISIAQFRPRETGNVVYRPAGGLNVRTELAVLRSTRKQRSSIEERLWDLASSLGR | not soluble
4 | MGSDKIHHHHHHMSQILLIHSSVHGYTQKICEYLQRQLIEQDQLVTVASLAEAPDLALFDKVYIGASIRHGKHRPALYQFIEDHRAELDNKPSGFFSVSLVARKPNKNTPQTNSYMQQFLSQSPWQPKLLQVFGGNLDYQGYGAMDRNIIRFIMWLTKGPTDPNTKVEFTDWQKVDEFAQQIIEA | not soluble
5 | MGSDKIHHHHHHMSQNVYIGMTLKPWPILLDHYSMSYDGRVSVKSIGYGMHLFKYHGCIMLATRTKVDSTMAYDTITVSAPWWAKDKLHSFLEDTRGDISTEPKVNIFEETEWCRYGILKSSGFSELVLDEGFKQELMGEVDNFASRGESVVSKLTILLHGKTGTGKTGIARALAVEYHRDLYILNLSTVNDATIHKAIRKVPPGAMLLIEDCDCVKATVSRTAESNADNPPLTLGGVLNALDGIIPLDDCLVIMTTNHPDNLDPALIRKGRVDVSIEVPLISAKQVNEDYFERFGAVLNRTEPLLGCEVYELHRRANLRYGVCCKPV | not soluble
6 | MGSDKIHHHHHHMSQPLLSLPIDVLNIISKAMPTTLFQQLATQCTEVSFLNTGISNVNIKLSCEDGDKVLRVNQPHSNWCDRSLEVECWQAAIVANIAPVLIWVSDDKQVYLSEFIHQPETDWSIFASMRSHLSLGQSTNQSISAVDAVPLLSALFCKLSTLPVPNKSITVTEQWQQYAYQLDSLTESQIDPQWHDAWQQLLRLNGLVRHWLSQLEACVLLPTFCHRDLTPHNLLLSGRAPHQLFCIDYEYAVASHPLFDLASVVASHKLSTIQVNQLIDNVIMQYCQAASLTDVAAAKAALPAAINCFWLFSAMWALLMAAKEPQKVTQYLQYFTYYLTLITC | not soluble
7 | MGSDKIHHHHHHMSQPPLPAVCTQAASALLPVAIDYPAALALRQMAMQHDDYPKYLLAPEVSALLHYVPDLHRRMLLATLWNTGARINEALALTRGDFSLAPPYPFVQLATLKQRAEKAARTAGRMPSGSQPHRLVPLSDNQYVSELQMMVATLKIPLERRNRRTGRTEKARLWEITDRTVRTWIGEAVEAAAADDVTFSVPVTPHTFRHSYAMHMLYAGIPLKVLQALMGHKSVSSTEVYTKVFALDVAARHRVQFQMPGADAVAMLKGGS | not soluble
